Laboratory results as given in US20220387487A1, “COMPOSITIONS AND METHODS FOR TREATMENT OF CANCER” (Aleta Biotherapeutics Inc., priority 2019, published 2022).
“And” between values parts separate entries of the source, which are not always exact repeats. Equal values may be shown once.

Assays:
[1] = target: T1, CLL-1 (CLEC12A) on CLL-1 positive cell lines (U937, OCI-AML-5) (human, UniProt Q5QGZ9 1-265); test: flow cytometry on CLL-1 positive U937 cells, FMC63-PE detection
T1 construct: whole, on cells; also called MICL
T1 sequence: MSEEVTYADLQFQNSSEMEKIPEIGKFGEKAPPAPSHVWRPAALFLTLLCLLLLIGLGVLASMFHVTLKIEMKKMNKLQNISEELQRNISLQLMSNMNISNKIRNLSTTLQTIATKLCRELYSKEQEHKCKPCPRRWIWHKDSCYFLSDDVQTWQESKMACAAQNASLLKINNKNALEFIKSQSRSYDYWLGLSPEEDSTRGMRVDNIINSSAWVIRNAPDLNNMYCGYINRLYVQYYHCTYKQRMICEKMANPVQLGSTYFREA

[2] = target: T1, CLL-1 (CLEC12A) on CLL-1 positive cell …; test: cell-based or functional assay
CD33 on U937 cells [3] = target: T2, CD33 on U937 cells (UniProt P20138 18-364, limits assumed); test: flow cytometry on U937 cells (cell line per paragraph 272), purified fusion protein, detection with FMC63-PE, % Binding
T2 construct: whole, on cells

biotinylated CD33 = biotinylated CD33 (UniProt P20138 18-259, biotinylated (site not stated)); test: ELISA: fusion protein captured on FMC63, biotinylated CD33, HRP-SA
[4] = target: T1, CLL-1 (CLEC12A) on CLL-1 positive cell …; test: flow cytometry on U937 cells (cell line per paragraph 272), purified fusion protein, detection with FMC63-PE, % Binding; the cells carry both CLEC12A and CD33, the value is for the whole cell and is not split between the two antigens
CD33 on U937 cells [5] = target: T2, CD33 on U937 cells; test: as above

EC50 [4]	EC50 (CD33 on U937 cells [5])	Binder	EC50 [1] [nM]	CLEC12A-cell cytotoxicity (IC50 n = 2-3) [2] [nM]	EC50 (CD33 on U937 cells [3])	EC50 (biotinylated CD33)
–	–	CD19 variant-anti-CLL-1 VHH(1B12) (construct #321) (other, Fusion of a CD19 variant extracellular domain, linker, anti-CLL-1 VHH 1B12 and myc-His tag) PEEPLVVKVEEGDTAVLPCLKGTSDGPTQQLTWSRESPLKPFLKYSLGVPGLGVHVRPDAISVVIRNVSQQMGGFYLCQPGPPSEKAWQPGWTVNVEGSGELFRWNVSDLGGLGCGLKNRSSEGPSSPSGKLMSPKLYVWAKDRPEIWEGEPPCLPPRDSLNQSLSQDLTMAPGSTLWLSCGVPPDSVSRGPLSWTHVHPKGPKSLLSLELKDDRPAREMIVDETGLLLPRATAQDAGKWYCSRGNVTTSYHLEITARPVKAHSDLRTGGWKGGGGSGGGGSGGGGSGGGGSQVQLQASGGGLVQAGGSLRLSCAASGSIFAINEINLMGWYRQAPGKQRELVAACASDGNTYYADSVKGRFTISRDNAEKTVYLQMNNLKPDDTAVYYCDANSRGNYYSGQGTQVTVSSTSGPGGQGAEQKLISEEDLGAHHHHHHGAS	3	0.027	–	–
–	–	anti-CD33 scFv-variant CD19-His (construct #410) (other, also called anti-CD33 scFv fusion protein) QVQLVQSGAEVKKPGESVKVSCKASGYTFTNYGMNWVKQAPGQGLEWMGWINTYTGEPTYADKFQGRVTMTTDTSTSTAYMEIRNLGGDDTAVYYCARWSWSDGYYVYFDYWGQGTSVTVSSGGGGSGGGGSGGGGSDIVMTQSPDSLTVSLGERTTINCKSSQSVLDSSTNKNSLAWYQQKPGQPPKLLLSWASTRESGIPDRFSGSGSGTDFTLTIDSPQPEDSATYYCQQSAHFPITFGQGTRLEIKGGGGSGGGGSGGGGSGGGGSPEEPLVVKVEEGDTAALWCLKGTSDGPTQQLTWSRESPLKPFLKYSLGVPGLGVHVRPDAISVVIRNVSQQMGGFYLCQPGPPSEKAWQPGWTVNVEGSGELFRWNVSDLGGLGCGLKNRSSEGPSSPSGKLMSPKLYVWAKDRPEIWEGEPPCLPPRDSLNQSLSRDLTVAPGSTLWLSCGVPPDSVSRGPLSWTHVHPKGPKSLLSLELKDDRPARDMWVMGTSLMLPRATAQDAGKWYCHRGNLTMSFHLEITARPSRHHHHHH	–	–	0.0213 µg/mL and 0.37 nM	0.003 µg/mL and 0.0522 nM
0.00796 µg/mL and 0.111 nM	0.00796 µg/mL and 0.111 nM	anti-CD33 scFv-anti-CLL VHH (2H3)-CD19 variant (construct #440) (other) QVQLVQSGAEVKKPGESVKVSCKASGYTFTNYGMNWVKQAPGQGLEWMGWINTYTGEPTYADKFQGRVTMTTDTSTSTAYMEIRNLGGDDTAVYYCARWSWSDGYYVYFDYWGQGTSVTVSSGGGGSGGGGSGGGGSDIVMTQSPDSLTVSLGERTTINCKSSQSVLDSSTNKNSLAWYQQKPGQPPKLLLSWASTRESGIPDRFSGSGSGTDFTLTIDSPQPEDSATYYCQQSAHFPITFGQGTRLEIKGGGGSGGGGSGGGGSGGGGSQVQLQESGGGLVQAGGSLRLSCVASGSIRSINVMGWYRQAPGKQRELVAACASDGNTYYADSVKGRFTISRDNAEKTVYLQMNNLKPDDTAVYYCDANSRGNYYSGQGTQVTVSSTSGPGGQGAGGGGSGGGGSGGGGSGGGGSPEEPLVVKVEEGDTAALWCLKGTSDGPTQQLTWSRESPLKPFLKYSLGVPGLGVHVRPDAISVVIRNVSQQMGGFYLCQPGPPSEKAWQPGWTVNVEGSGELFRWNVSDLGGLGCGLKNRSSEGPSSPSGKLMSPKLYVWAKDRPEIWEGEPPCLPPRDSLNQSLSRDLTVAPGSTLWLSCGVPPDSVSRGPLSWTHVHPKGPKSLLSLELKDDRPARDMWVMGTSLMLPRATAQDAGKWYCHRGNLTMSFHLEITARPSRHHHHHH	–	–	–	0.0021 µg/mL and 0.0292 nM
